# Data from patent US20180280496A1.
# Where “and” joins values, the source holds several entries; their conditions need not be identical. Identical values can stand only once. Like-named read-outs stand apart in the source and are kept apart here.
# T1: H-2Kb (mouse), P01901
# T1 chain: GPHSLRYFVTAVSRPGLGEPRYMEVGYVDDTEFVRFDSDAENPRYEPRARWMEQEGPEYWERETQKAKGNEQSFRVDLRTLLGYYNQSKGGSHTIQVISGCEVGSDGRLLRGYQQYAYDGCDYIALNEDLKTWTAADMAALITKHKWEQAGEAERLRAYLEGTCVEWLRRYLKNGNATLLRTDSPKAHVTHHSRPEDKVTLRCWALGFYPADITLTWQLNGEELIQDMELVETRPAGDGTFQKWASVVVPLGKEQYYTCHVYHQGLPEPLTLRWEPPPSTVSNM
# What was measured:
# A*11:01 (human), P04439 [1] = assay: ProImmune REVEAL MHC class I-peptide binding assay
# A*24:02 (human), P04439 [2] = conditions: modification not given
# H-2Kb (mouse), P01901 = target: T1, H-2Kb (mouse), P01901; assay: ProImmune REVEAL MHC class I-peptide binding assay
# B*07:02 (human), P01889 = assay: ProImmune REVEAL MHC class I-peptide binding assay
# A*02:01 (human), P04439 [3] = assay: ProImmune REVEAL MHC class I-peptide binding assay
# A*24:02 (human), P04439 [4] = conditions: modification not given; remark: listed apart in the source
# A*02:01 (human), P04439 [5] = conditions: chains peptide; modification not given
# A*02:01 (human), P04439 [6] = assay: ProImmune REVEAL MHC class I-peptide binding assay, A*02:01
# A*11:01 (human), P04439 [7] = conditions: modification not given
# A*24:02 (human), P04439 [8] = assay: ProImmune REVEAL MHC class I-peptide binding assay
# B*27:05 (human), P01889 = assay: ProImmune REVEAL MHC class I-peptide binding assay
# A*11:01 (human), P04439 [9] = conditions: modification not given; remark: listed apart in the source
# A*11:01 (human), P04439 [10] = conditions: modification not given; remark: listed apart in the source
# A*11:01 (human), P04439 [11] = conditions: modification not given; remark: listed apart in the source
# A*24:02 (human), P04439 [12] = conditions: modification not given; remark: listed apart in the source
# A*11:01 (human), P04439 [13] = conditions: modification not given; remark: listed apart in the source
# A*03:01 (human), P04439 = conditions: modification not given
# HLA-B*15:01 = conditions: chains peptide; modification not given
# HLA-A*32:01 = conditions: chains peptide; modification not given
# HLA-B*40:01 = conditions: chains peptide; modification not given
# A*02:01 (human), P04439 [14] = conditions: chains peptide; modification not given; remark: listed apart in the source
# A*24:02 (human), P04439 [15] = conditions: modification not given; remark: listed apart in the source
binder,measurement,setting,value
GTYGLNTFT (modifications not checked),REVEAL score at 0 h,"A*11:01 (human), P04439 [1]",63.6
TVWFVPSIK (modifications not checked),REVEAL score at 0 h,"A*11:01 (human), P04439 [1]",92.2
SYAMCLNTF [SEQ ID NO: 308 serotype 3],IC50,"A*24:02 (human), P04439 [2]",540 nM
LSRNSTHEM (modifications not checked),REVEAL score at 0 h,"H-2Kb (mouse), P01901",51.1
same,REVEAL score at 0 h,"B*07:02 (human), P01889",124
PLSRNSTHE (modifications not checked),REVEAL score at 0 h,"B*07:02 (human), P01889",65
LMYFHRRDL (modifications not checked),REVEAL score at 0 h,"H-2Kb (mouse), P01901",54.9
same,REVEAL score at 0 h,"B*07:02 (human), P01889",120
same,REVEAL score at 0 h,"A*02:01 (human), P04439 [3]",97.8
SYTMCSGKF [SEQ ID NO: 308 serotype 4],IC50,"A*24:02 (human), P04439 [4]",222 nM
AISGDDCVV (modifications not checked),REVEAL score at 0 h,"A*02:01 (human), P04439 [3]",91.1
KQWFLDLPL (modifications not checked),IC50,"A*02:01 (human), P04439 [5]",11 nM
same,REVEAL Score,"A*02:01 (human), P04439 [6]",86
ATFTMRLLS (modifications not checked),REVEAL score at 0 h,"H-2Kb (mouse), P01901",55.6
same,REVEAL score at 0 h,"A*11:01 (human), P04439 [1]",58.5
HATFTMRLL (modifications not checked),REVEAL score at 0 h,"H-2Kb (mouse), P01901",69.5
VTFKTAHAK [SEQ ID NO: 309 serotype 1],IC50,"A*11:01 (human), P04439 [7]",16 nM
VGTYGLNTF (modifications not checked),REVEAL score at 0 h,"A*24:02 (human), P04439 [8]",96
MWHVTRGAV (modifications not checked),REVEAL score at 0 h,"A*02:01 (human), P04439 [3]",62.7
PERVILAGP (modifications not checked),REVEAL score at 0 h,"B*07:02 (human), P01889",56.1
RRGDLPVWL (modifications not checked),REVEAL score at 0 h,"B*27:05 (human), P01889",145
MGEAAAIFM (modifications not checked),REVEAL score at 0 h,"A*02:01 (human), P04439 [3]",50.6
VTFKVPHAK [SEQ ID NO: 309 serotype 4],IC50,"A*11:01 (human), P04439 [9]",14 nM
LMRRGDLPV (modifications not checked),REVEAL score at 0 h,"B*07:02 (human), P01889",179
same,REVEAL score at 0 h,"A*02:01 (human), P04439 [3]",82.3
ARGYISTRV (modifications not checked),REVEAL score at 0 h,"B*27:05 (human), P01889",125
VTFKNPHAK [SEQ ID NO: 309 serotype 2],IC50,"A*11:01 (human), P04439 [10]",17 nM
VTFKNAHAK [SEQ ID NO: 309 serotype 3],IC50,"A*11:01 (human), P04439 [11]",17 nM
GEAAAIFMT (modifications not checked),REVEAL score at 0 h,"A*24:02 (human), P04439 [8]",58.9
same,REVEAL score at 0 h,"A*11:01 (human), P04439 [1]",50.3
same,REVEAL score at 0 h,"A*02:01 (human), P04439 [3]",74.3
SYVMCTGSF [SEQ ID NO: 308 serotype 1],IC50,"A*24:02 (human), P04439 [12]",104 nM
TALTGATEI (modifications not checked),REVEAL Score,"A*02:01 (human), P04439 [6]",0.9
ALTLHWFRK [SEQ ID NO: 311 serotype 4],IC50,"A*11:01 (human), P04439 [13]",47 nM
same,IC50,"A*03:01 (human), P04439",34 nM
CHATFTMRL (modifications not checked),REVEAL score at 0 h,"H-2Kb (mouse), P01901",60.3
same,REVEAL score at 0 h,"A*24:02 (human), P04439 [8]",75.9
SRNSTHEMY (modifications not checked),REVEAL score at 0 h,"B*07:02 (human), P01889",52
FKLTYQNKV (modifications not checked),REVEAL score at 0 h,"B*27:05 (human), P01889",53.7
KLTYQNKVV (modifications not checked),REVEAL score at 0 h,"A*02:01 (human), P04439 [3]",92.3
LMCHATFTM (modifications not checked),REVEAL score at 0 h,"H-2Kb (mouse), P01901",59
same,REVEAL score at 0 h,"A*24:02 (human), P04439 [8]",99.5
same,REVEAL score at 0 h,"B*27:05 (human), P01889",98.2
same,REVEAL score at 0 h,"A*02:01 (human), P04439 [3]",72.9
VVAAEMEEA (modifications not checked),REVEAL score at 0 h,"A*02:01 (human), P04439 [3]",92.2
ISGDDCVVK (modifications not checked),REVEAL score at 0 h,"A*11:01 (human), P04439 [1]",88.7
YGLNTFTNM (modifications not checked),REVEAL score at 0 h,"H-2Kb (mouse), P01901",75.4
YFHRRDLRL (modifications not checked),REVEAL score at 0 h,"A*24:02 (human), P04439 [8]",87.5
QQRVFKEKV (modifications not checked),REVEAL score at 0 h,"H-2Kb (mouse), P01901",63.4
IVDLMCHAT (modifications not checked),REVEAL score at 0 h,"A*02:01 (human), P04439 [3]",62.7
FKPGTSGSP (modifications not checked),REVEAL score at 0 h,"H-2Kb (mouse), P01901",45.7
same,REVEAL score at 0 h,"B*07:02 (human), P01889",50.4
HWTEAKMLL (modifications not checked),REVEAL score at 0 h,"A*24:02 (human), P04439 [8]",103
LAPTRVVAA (modifications not checked),REVEAL score at 0 h,"H-2Kb (mouse), P01901",102
RQWFFDLPL [SEQ ID NO: 310 serotype 3],IC50,HLA-B*15:01,80 nM
same,IC50,HLA-A*32:01,7 nM
same,IC50,HLA-B*40:01,51 nM
RQWFFDLPL (modifications not checked),IC50,"A*02:01 (human), P04439 [14]",12 nM and 39 nM
same,REVEAL Score,"A*02:01 (human), P04439 [6]",80.5
IPERSWNSG (modifications not checked),REVEAL score at 0 h,"B*07:02 (human), P01889",45.2
SYSMCTGKF [SEQ ID NO: 308 serotype 2],IC50,"A*24:02 (human), P04439 [15]",115 nM
GLYGNGVVT (modifications not checked),REVEAL score at 0 h,"A*02:01 (human), P04439 [3]",87.7
WTEAKMLLD (modifications not checked),REVEAL score at 0 h,"A*24:02 (human), P04439 [8]",94.7
